Results reported in US20250154277A1 (CONCEPT TO MEDICINE BIOTECH, published 2025).

Tests used:
[1] = molecular target: T1, human 5T4-His protein (human, UniProt Q13641 32-355); test: SPR Biacore, Protein A capture, 50 nM 5T4-His
T1 construct: also called recombinant 5T4 protein (human 5T4-his tag); human 5T4 protein; not shown: His tag
T1 sequence (looked up): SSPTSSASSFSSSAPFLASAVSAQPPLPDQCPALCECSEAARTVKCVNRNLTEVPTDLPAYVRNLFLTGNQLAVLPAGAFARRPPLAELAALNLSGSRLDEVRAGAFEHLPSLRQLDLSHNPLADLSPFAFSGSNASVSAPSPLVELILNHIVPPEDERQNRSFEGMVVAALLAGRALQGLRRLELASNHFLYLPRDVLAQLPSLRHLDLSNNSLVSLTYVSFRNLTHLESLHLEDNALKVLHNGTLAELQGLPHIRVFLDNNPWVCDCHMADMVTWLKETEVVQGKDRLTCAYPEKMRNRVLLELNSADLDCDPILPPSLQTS
Protocol: The binding of the 159D5 humanized antibodies to recombinant 5T4 protein (human 5T4-his tag) was tested with Biacore using a capture method. The mAbs were captured using Protein A chip. 50 nM of human 5T4-his tag protein was injected over captured antibody for 3 mins at a flow rate of 30 μl/min. The antigen was allowed to dissociate for 600 s. All the experiments were carried out on a Biacore T200. Data analysis was carried out using the Biacore T200 evaluation software.

[2] = molecular target: T1, human 5T4-His protein; test: ELISA, coated 5T4-His
Protocol: To evaluate the binding activity of 159D5 humanized antibodies to human 5T4, the 159D5 chimeric antibody along with 159D5 humanized mAbs were subjected to ELISA test.
Briefly, microtiter plates were coated with human 5T4-His protein at 1 μg/ml in PBS, 100 μl/well at 4° C. overnight, then blocked with 150 μl/well of 10% BSA. Serial dilutions of antibodies were added to each well and incubated for 1 hour at 37° C. The plates were washed with PBS/Tween and then incubated with Goat Anti-Human IgG-HRP for 30 mins at 37° C. After washing, the plates were developed with TMB substrate and analyzed by spectrophotometer at OD 450 nm. As shown in FIG. 14 and Table 12, most of the humanized antibodies bound to human 5T4 with high activity.

[3] = molecular target: T2, human 5T4 expressed on cells (human, UniProt Q13641 32-420); test: flow cytometry, CHOK1-hu5T4 cells
T2 construct: whole, on cells; also called CHOK1-hu5T4; CHO-K1-expressing human 5T4
T2 sequence (looked up): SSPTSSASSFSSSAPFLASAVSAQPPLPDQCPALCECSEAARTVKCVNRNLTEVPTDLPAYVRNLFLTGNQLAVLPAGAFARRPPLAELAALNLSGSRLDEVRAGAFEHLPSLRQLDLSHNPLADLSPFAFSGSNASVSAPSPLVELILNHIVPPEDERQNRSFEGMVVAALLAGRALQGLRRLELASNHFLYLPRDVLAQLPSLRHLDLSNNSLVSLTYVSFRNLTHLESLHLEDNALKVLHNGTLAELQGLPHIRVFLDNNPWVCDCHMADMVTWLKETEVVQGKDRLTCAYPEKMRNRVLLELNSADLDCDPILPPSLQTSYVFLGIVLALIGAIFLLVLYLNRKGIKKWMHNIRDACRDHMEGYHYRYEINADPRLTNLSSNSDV

Binder	Kd [1]	koff [1]	kon [1]	EC50 [2]	EC50 (read off the curve) [3]
Hu159D5-2 (antibody, V domains shown, humanized) VH: EVQLVESGGGVVQPGRSLRLSCAASGFTFSNFGMHWVRQAPGKGLEWVAYISSGSSTFYYADSVKGRFTISRDNSKNTLYLQMNSLRAEDTAVYYCARSPAYYRYGLDYWGQGTTVTVSS VL: DIVMTQTPLSLSVTPGQPASISCRASQSVSSSTFSYMHWYQQKPGQPPQLLIKSSSNLESGVPDRFSGSGSGTDFTLKISRVEAEDVGVYYCQHSWEIPYTFGGGTKVEIK	0.789 nM	0.000227 s⁻¹	287000 M⁻¹ s⁻¹	0.12 nM	–
Hu159D5-5 (antibody, V domains shown, humanized) VH: EVQLVESGGGVVQPGRSLRLSCAASGFTFSNFGMHWVRQAPGKGLEWVAYISSGSSTFYYADSVKGRFTISRDNSKNTLYLQMNSLRAEDTAVYYCARSPAYYRYGLDYWGQGTTVTVSS VL: DIVMTQSPDSLAVSLGERATINCRASQSVSSSTFSYMHWYQQKPGQPPKLLIKSSSNLESGVPDRFSGSGSGTDFTLTISSLQAEDVAVYYCQHSWEIPYTFGGGTKVEIK	10.1 nM	0.000561 s⁻¹	55600 M⁻¹ s⁻¹	0.099 nM	–
Hu159D5-12 (antibody, V domains shown, humanized) VH: EVQLVESGGGVVQPGRSLRLSCAASGFTFSNFGMHWVRQAPGKGLEWVAYISSGSSTFYYADSVKGRFTISRDNSKNTLYLQMNSLRAEDTAVYFCARSPAYYRYGLDYWGQGTTVTVSS VL: DIVLTQSPDSLAVSLGERATINCRASQSVSSSTFSYMHWYQQKPGQPPKLLIKSSSNLESGVPDRFSGSGSGTDFTLTISSLQAEDVAVYYCQHSWEIPYTFGGGTKVEIK	1.21 nM	0.000267 s⁻¹	222000 M⁻¹ s⁻¹	0.12 nM	–
Hu159D5-10 (antibody, V domains shown, humanized) VH: EVQLVESGGGVVQPGRSLRLSCAASGFTFSNFGMHWVRQAPGKGLEWVAYISSGSSTFYYADSVKGRFTISRDNSKNTLYLQMNSLRAEDTAVYFCARSPAYYRYGLDYWGQGTTVTVSS VL: DIVMTQSPDSLAVSLGERATINCRASQSVSSSTFSYMHWYQQKPGQPPKLLIYSSSNLESGVPDRFSGSGSGTDFTLTISSLQAEDVAVYYCQHSWEIPYTFGGGTKVEIK	9.31 nM	0.000488 s⁻¹	52400 M⁻¹ s⁻¹	0.094 nM	–
Hu159D5-1 (antibody, V domains shown, humanized) VH: EVQLVESGGGVVQPGRSLRLSCAASGFTFSNFGMHWVRQAPGKGLEWVAYISSGSSTFYYADSVKGRFTISRDNSKNTLYLQMNSLRAEDTAVYYCARSPAYYRYGLDYWGQGTTVTVSS VL: DIVMTQTPLSLSVTPGQPASISCRASQSVSSSTFSYMHWYQQKPGQPPQLLIYSSSNLESGVPDRFSGSGSGTDFTLKISRVEAEDVGVYYCQHSWEIPYTFGGGTKVEIK	3.99 nM	0.000294 s⁻¹	73700 M⁻¹ s⁻¹	0.088 nM	–
Hu159D5-4 (antibody, V domains shown, humanized) VH: EVQLVESGGGVVQPGRSLRLSCAASGFTFSNFGMHWVRQAPGKGLEWVAYISSGSSTFYYADSVKGRFTISRDNSKNTLYLQMNSLRAEDTAVYYCARSPAYYRYGLDYWGQGTTVTVSS VL: DIVMTQSPDSLAVSLGERATINCRASQSVSSSTFSYMHWYQQKPGQPPKLLIYSSSNLESGVPDRFSGSGSGTDFTLTISSLQAEDVAVYYCQHSWEIPYTFGGGTKVEIK	7.07 nM	0.000426 s⁻¹	60200 M⁻¹ s⁻¹	0.094 nM	–
Hu159D5-3 (antibody, V domains shown, humanized) VH: EVQLVESGGGVVQPGRSLRLSCAASGFTFSNFGMHWVRQAPGKGLEWVAYISSGSSTFYYADSVKGRFTISRDNSKNTLYLQMNSLRAEDTAVYYCARSPAYYRYGLDYWGQGTTVTVSS VL: DIVLTQTPLSLSVTPGQPASISCRASQSVSSSTFSYMHWYQQKPGQPPQLLIKSSSNLESGVPDRFSGSGSGTDFTLKISRVEAEDVGVYYCQHSWEIPYTFGGGTKVEIK	1.02 nM	0.00024 s⁻¹	235000 M⁻¹ s⁻¹	0.12 nM	–
Hu159D5-7 (antibody, V domains shown, humanized) VH: EVQLVESGGGVVQPGRSLRLSCAASGFTFSNFGMHWVRQAPGKGLEWVAYISSGSSTFYYADSVKGRFTISRDNSKNTLYLQMNSLRAEDTAVYFCARSPAYYRYGLDYWGQGTTVTVSS VL: DIVMTQTPLSLSVTPGQPASISCRASQSVSSSTFSYMHWYQQKPGQPPQLLIYSSSNLESGVPDRFSGSGSGTDFTLKISRVEAEDVGVYYCQHSWEIPYTFGGGTKVEIK	1.14 nM	0.000253 s⁻¹	221000 M⁻¹ s⁻¹	0.097 nM	–
Hu159D5-9 (antibody, V domains shown, humanized) VH: EVQLVESGGGVVQPGRSLRLSCAASGFTFSNFGMHWVRQAPGKGLEWVAYISSGSSTFYYADSVKGRFTISRDNSKNTLYLQMNSLRAEDTAVYFCARSPAYYRYGLDYWGQGTTVTVSS VL: DIVLTQTPLSLSVTPGQPASISCRASQSVSSSTFSYMHWYQQKPGQPPQLLIKSSSNLESGVPDRFSGSGSGTDFTLKISRVEAEDVGVYYCQHSWEIPYTFGGGTKVEIK	0.747 nM	0.000221 s⁻¹	295000 M⁻¹ s⁻¹	0.14 nM	–
Hu159D5-8 (antibody, V domains shown, humanized) VH: EVQLVESGGGVVQPGRSLRLSCAASGFTFSNFGMHWVRQAPGKGLEWVAYISSGSSTFYYADSVKGRFTISRDNSKNTLYLQMNSLRAEDTAVYFCARSPAYYRYGLDYWGQGTTVTVSS VL: DIVMTQTPLSLSVTPGQPASISCRASQSVSSSTFSYMHWYQQKPGQPPQLLIKSSSNLESGVPDRFSGSGSGTDFTLKISRVEAEDVGVYYCQHSWEIPYTFGGGTKVEIK	4.19 nM	0.000352 s⁻¹	84000 M⁻¹ s⁻¹	0.15 nM	–
Hu159D5-11 (antibody, V domains shown, humanized) VH: EVQLVESGGGVVQPGRSLRLSCAASGFTFSNFGMHWVRQAPGKGLEWVAYISSGSSTFYYADSVKGRFTISRDNSKNTLYLQMNSLRAEDTAVYFCARSPAYYRYGLDYWGQGTTVTVSS VL: DIVMTQSPDSLAVSLGERATINCRASQSVSSSTFSYMHWYQQKPGQPPKLLIKSSSNLESGVPDRFSGSGSGTDFTLTISSLQAEDVAVYYCQHSWEIPYTFGGGTKVEIK	1.06 nM	0.000273 s⁻¹	257000 M⁻¹ s⁻¹	0.12 nM	–
Hu159D5-6 (antibody, V domains shown, humanized) VH: EVQLVESGGGVVQPGRSLRLSCAASGFTFSNFGMHWVRQAPGKGLEWVAYISSGSSTFYYADSVKGRFTISRDNSKNTLYLQMNSLRAEDTAVYYCARSPAYYRYGLDYWGQGTTVTVSS VL: DIVLTQSPDSLAVSLGERATINCRASQSVSSSTFSYMHWYQQKPGQPPKLLIKSSSNLESGVPDRFSGSGSGTDFTLTISSLQAEDVAVYYCQHSWEIPYTFGGGTKVEIK	0.71 nM	0.000179 s⁻¹	252000 M⁻¹ s⁻¹	0.1 nM	–
159D5-P1 (antibody, V domains shown, chimeric 159D5 with S62A (DS to DA) in VH CDR2; also called PTM removal antibody of 159D5-P1; 159D5-VH.S62A with 159D5 VL) VH: DVQLVESGGGLVQPGGSRKLSCTASGFTFSNFGMHWVRQAPETGLEWVAYISSGSSTFYYADAVKGRFTISRDNPKNTLFLQMTSLRSEDTAMYFCARSPAYYRYGLDYWGQGTTLTVSS VL: DIVLTQSPASLAVSLGQRATISCRASQSVSSSTFSYMHWYQQKPGQPPKLLIKSSSNLESGVPARFSGSGSGTDFTLNIHPVEEEDTATYYCQHSWEIPYTFGGGTKLEIK	0.489 nM	0.000163 s⁻¹	334000 M⁻¹ s⁻¹	0.13 nM	–
trispecific antibody with anti-5T4 portion of Hu393E9-45-P2 (protein, part only; not given: other two arms, Fc, linkers, format, not shown: another chain or arm of the molecule; a dimerising Fc or GST; small tags and cut ends) VH: EVQLVESGGGLVQPGGSLRLSCAASGFTFTDYYMSWVRQAPGKGLEWVGFIRNKGNGYTTEYSASVKGRFTISRDNSKSSLYLQMNSLKTEDTAVYYCARYRGNPHYAMDYWGQGTLVTVSS VL: EIVLTQSPGTLSLSPGERATLSCRASESVEFYGTSFLQWYQQKPGQAPRLLIYGASNVESGIPDRFSGSGSGTDFTLTISRLEPEDIAVYFCQQSRKVPSTFGGGTKVEIK	–	–	–	–	2 nM
trispecific antibody with anti-5T4 portion of Hu393E9-62-P2 (protein, part only; not given: other two arms, Fc, linkers, format, not shown: another chain or arm of the molecule; a dimerising Fc or GST; small tags and cut ends) VH: EVQLVESGGGLVQPGGSLRLSCAASGFTFTDYYMSWVRQAPGKGLEWVGFIRNKGNGYTTEYSASVKGRFTISRDNAKSSLYLQMNSLRAEDTAVYYCARYRGNPHYAMDYWGQGTLVTVSS VL: EIVLTQSPATLSVSPGERATLSCRASESVEFYGTSFLQWYQQKPGQAPRLLIYGASNVESGIPARFSGSGSGTEFTLTISSLQSEDIAVYFCQQSRKVPSTFGGGTKVEIK	–	–	–	–	2 nM
